First the molecules themselves.
T1: BCMA (Homo sapiens (Human), UniProt Q02223 1-54, limits assumed)
T1 sequence: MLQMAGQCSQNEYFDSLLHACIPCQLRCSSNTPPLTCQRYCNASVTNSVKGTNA

B1: D-domain SEQ ID NO: 49 (designed binder)
chain: MGSWTEFAWRLQAIHQRLQALGGSEAELAAFEKEIAAFESELQAYKGKGNPEVEELRVYAAKIRISLQAYRHN
B2: D-domain SEQ ID NO: 60 (designed binder)
chain: B1 chain with T5S, Q12E, Q19S, E55S, V58L, Y59F, K62Q, I65E, S66N
B3: D-domain SEQ ID NO: 62 (designed binder)
chain: B1 chain with Q12I, H15D, Q19M, E55I, V58E, Y59L, K62E, I65F, S66H
B4: D-domain SEQ ID NO: 48 (designed binder)
chain: B1 chain with T5N, Q12T, H15E, Q19M, V58H, K62G, I65D, S66N
B5: D-domain SEQ ID NO: 61 (designed binder)
chain: MGSWNEFAWRLIAINQRLWALGGSEAELAAFEKEIAAFESELQAYKGKGNPEVESLRHFAANIRNDLQAYRHN
B6: D-domain SEQ ID NO: 59 (designed binder)
chain: B1 chain with Q12E, H15N, N50K, E55A, V58A, I65T, S66R
B7: D-domain SEQ ID NO: 50 (designed binder)
chain: B1 chain with T5I, Q19D, E55D, V58E, K62N, I65D
B8: D-domain SEQ ID NO: 44 (designed binder)
chain: B1 chain with T5Y, A8S, Q19N, V58A, K62G, I65G, S66A
B9: D-domain SEQ ID NO: 58 (designed binder)
chain: B1 chain with T5V, Q12T, Q16T, Q19W, E55S, V58K, I65K, S66Q
B10: D-domain SEQ ID NO: 45 (designed binder)
chain: B1 chain with T5H, A8T, Q12I, H15Q, Q19E, V58A, K62G, I65H, S66H
B11: D-domain SEQ ID NO: 53 (designed binder)
chain: B1 chain with T5I, A8S, Q12E, H15R, E55S, V58S, K62R, I65Q, S66E
B12: D-domain SEQ ID NO: 51 (designed binder)
chain: B1 chain with T5H, A8T, Q12V, H15Q, V58K, Y59F, I65Y, S66E
B13: D-domain SEQ ID NO: 56 (designed binder)
chain: B1 chain with T5V, Q12T, H15D, Q19S, E55N, V58F, I65S, S66H
B14: D-domain SEQ ID NO: 57 (designed binder)
chain: B1 chain with T5V, Q12E, H15K, Q19T, V58L, I65R, S66V
B15: D-domain SEQ ID NO: 55 (designed binder)
chain: MGSWVEFSWRLEAIRQRLTALGGSEAELAAFEKEIAAFESELQAYKGKGNPEVEDLRKYAARIRGELQAYRHN
B16: D-domain SEQ ID NO: 52 (designed binder)
chain: MGSWHEFTWRLIAIRERLFALGGSEAELAAFEKEIAAFESELQAYKGKGNPEVEELREYAASIRNMLQAYRHN
B17: D-domain SEQ ID NO: 54 (designed binder)
chain: B15 chain with T19Q, D55S, K58S, G65Q
B18: D-domain SEQ ID NO: 47 (designed binder)
chain: B5 chain with N5H, I12Q, W19N, S55E, F59Y, N62H, D66G
B19: D-domain SEQ ID NO: 46 (designed binder)
chain: B16 chain with H5R, T8A, I12V, R15N, E16S, F19K, E58H, N65D, M66G
B20: D-domain SEQ ID NO: 66 (designed binder)
chain: MGSWIEFQERLDAIFYRLHALGGSEAELAAFEKEIAAFESELQAYKGKGNPEVEDLRDAAATIRRQLQAYRHN
B21: D-domain SEQ ID NO: 68 (designed binder)
chain: B20 chain with I5Y, E9S, H19F, D55K, D58E, T62S, R65T
B22: D-domain SEQ ID NO: 67 (designed binder)
chain: B20 chain with E9Q, H19Y, D55N, A59M, T62I, R65K
B23: D-domain SEQ ID NO: 336 (designed binder)
chain: MGSWYLFQSHLAHIKHHLEALGGSEAELAWFEFTIAGFEQELQHYKGKGNPEVEALRKEAAAIRDELQAYRHN
B24: D-domain SEQ ID NO: 331 (designed binder)
chain: MGSWTNFKEGLAEIKRDLEALGGSEAELARFEYVIAVFEFRLQNYKGKGNPEVEALRKEAAAIRDELQAYRHN
B25: D-domain SEQ ID NO: 328 (designed binder)
chain: MGSWQSFKHALADIKINLEALGGSEAELAQFEYAIAVFEYRLQAYKGKGNPEVEALRKEAAAIRDELQAYRHN
B26: D-domain SEQ ID NO: 329 (designed binder)
chain: B25 chain with Q5H, S6T, H9E, D13Q, I16G, N17E, Q30S, A44M
B27: D-domain SEQ ID NO: 339 (designed binder)
chain: MGSWYGFKWYLATIKKHLEALGGSEAELALFETEIATFELWLQDYKGKGNPEVEALRKEAAAIRDELQAYRHN
B28: D-domain SEQ ID NO: 337 (designed binder)
chain: MGSWYSFKWTLARIKLELEALGGSEAELAYFENVIAHFEMELQSYKGKGNPEVEALRKEAAAIRDELQAYRHN
B29: D-domain SEQ ID NO: 325 (designed binder)
chain: MGSWISFKDNLAMIKEFLEALGGSEAELAVFEWYIATFEVELQDYKGKGNPEVEALRKEAAAIRDELQAYRHN
B30: D-domain SEQ ID NO: 326 (designed binder)
chain: B29 chain with I5H, S6I, M13T, E16A, T37K, V40E, D44G
B31: D-domain SEQ ID NO: 327 (designed binder)
chain: MGSWTSFKHGLAGIKRVLEALGGSEAELATFEWYIAQFERHLQAYKGKGNPEVEALRKEAAAIRDELQAYRHN
B32: D-domain SEQ ID NO: 70 (designed binder)
chain: MGSWSEFYDRLYAINQRLFALGGSEAELAAFEKEIAAFESELQAYKGKGNPEVEDLRWYAAFIRAQLQAYRHN
B33: D-domain SEQ ID NO: 71 (designed binder)
chain: B32 chain with S5Y, Y12D, N15V, Q16H, F19D, D55N, F62M, A65V, Q66R
B34: D-domain SEQ ID NO: 330 (designed binder)
chain: MGSWTDFKTSLADIKAELEALGGSEAELAKFEYYIAIFEYRLQEYKGKGNPEVEALRKEAAAIRDELQAYRHN
B35: D-domain SEQ ID NO: 332 (designed binder)
chain: B24 chain with T5H, N6T, E9D, R16S, D17E, R30M, V37I, F40Y
B36: D-domain SEQ ID NO: 333 (designed binder)
chain: MGSWQFFKEHLASIKFWLEALGGSEAELAFFEDAIADFEYHLQNYKGKGNPEVEALRKEAAAIRDELQAYRHN
B37: D-domain SEQ ID NO: 334 (designed binder)
chain: B36 chain with Q5T, F6Y, D37E, Y40K, H41D, N44Y
B38: D-domain SEQ ID NO: 322 (designed binder)
chain: MGSWREFKYGLAHIKRVLEALGGSEAELAVFEYYIAKFEQELQEYKGKGNPEVEALRKEAAAIRDELQAYRHN
B39: D-domain SEQ ID NO: 324 (designed binder)
chain: B38 chain with R5V, Y9H, G10N, H13W, R16V, V17T, K37Q, Q40E, E41Q
B40: D-domain SEQ ID NO: 323 (designed binder)
chain: B38 chain with R5I, E6Q, V17T, Y33W, K37D, E41Q, E44G
B41: D-domain SEQ ID NO: 74 (designed binder)
chain: MGSWFEFQHRLEAISMRLHALGGSEAELAAFEKEIAAFESELQAYKGKGNPEVEELRWQAAYIRVVLQAYRHN
B42: D-domain SEQ ID NO: 75 (designed binder)
chain: B41 chain with F5V, H9S, S15A, M16T, H19R, Y62W, V65M, V66M
B43: D-domain SEQ ID NO: 76 (designed binder)
chain: B41 chain with F5E, H9Y, E12G, S15A, M16A, H19Q, Y62M, V65F, V66M
B44: D-domain SEQ ID NO: 63 (designed binder)
chain: MGSWSEFMNRLDAITYRLVALGGSEAELAAFEKEIAAFESELQAYKGKGNPEVELLRHYAAQIRDSLQAYRHN
B45: D-domain SEQ ID NO: 64 (designed binder)
chain: B44 chain with S5T, N9E, T15S, V19W, L55V, H58D, Q62I, D65N
B46: D-domain SEQ ID NO: 69 (designed binder)
chain: B32 chain with Y8I, Y12D, N15T, Q16Y, D55N, A61G, F62V, A65E
B47: D-domain SEQ ID NO: 65 (designed binder)
chain: B44 chain with S5A, N9D, V19W, L55E, H58G, Q62I, D65S, S66E
B48: D-domain SEQ ID NO: 338 (designed binder)
chain: MGSWTTLKWRLAHIKQHLEALGGSEAELALFEYDIAHFEELLQYYKGKGNPEVEALRKEAAAIRDELQAYRHN
B49: D-domain SEQ ID NO: 335 (designed binder)
chain: MGSWIIFKGYLAHIKHHLEALGGSEAELADFEFYIAIFEMELQKYKGKGNPEVEALRKEAAAIRDELQAYRHN

Substitutions are numbered along the chain they refer to.

The target in the experiment is T1, BCMA. In words: ELISA, format not described. More on the design: unit not given here. Background: In an ELISA, binding on a coated surface is turned into a signal by an enzyme label.
For B1, the ELISA_avg was found to be 18.7. With B2, the ELISA_avg was determined as 18. With B3 the figure was 8.55; with B4, 18.3. With B5 the figure was 11.5; with B6, 15.1. With B7 the figure was 19; with B8, 9.49.

B9: the ELISA_avg was determined as 6.08. The same measure for B10: 17.1; for B11: 9.92; for B12: 19.5. The molecule B13 gave an ELISA_avg of 8.43. For B14, the ELISA_avg turned out to be 8.9.

On to B15, for which the ELISA_avg came out at 21.3. The same measure for B16: 13.

The molecule B17 yielded an ELISA_avg of 19.1.

B18: the ELISA_avg was determined as 13.1.

The molecule B19 returned an ELISA_avg of 9.66. With B20 the figure was 18.6; with B21, 14.1; with B22, 20. With B23 the figure was 7.69; with B24, 12.3. With B25 the figure was 13.7; with B26, 6.76. B27 returned an ELISA_avg of 10.7.

The molecule B28 had an ELISA_avg of 4.05.

B29 registered an ELISA_avg of 7.16. With B30 the figure was 3.47; with B31, 9.77. The same measure for B32: 5.98; for B33: 14.7. With B34 the figure was 18.8. As to B35, the ELISA_avg turned out to be 10.7. The same measure for B36: 10.6. With B37 the figure was 6.6. The same measure for B38: 14.7. For the molecule B39, the ELISA_avg amounted to 15.8. With B40, the ELISA_avg was determined as 8.36. With B41 the figure was 4.05; with B42, 18; with B43, 3.11. With B44 the figure was 12.9; with B45, 9.87; with B46, 10.2. Regarding B47, the ELISA_avg came to 10.8. With B48 the figure was 17.8; with B49, 5.18.

The values above are taken from patent publication US20250026849A1 (ARCELLX, published 2025).
